# B1: Ribonuclease, P00648 (parent)
# chain: MMKMEGIALKKRLSWISVCLLVLVSAAGMLFSTAAKTETSSHKAHTEAQVINTFDGVADYLQTYHKLPDNYITKSEAQALGWVASKGNLADVAPGKSIGGDIFSNREGKLPGKSGRTWREADINYTSGFRNSDRILYSSDWLIYKTTDHYQTFTKIR
# Variants of: B1
# Details: Bacillus amyloliquefaciens, pH 6.3, Thermal, CD, Mes 50 mM, structure 1BNI, whole UniProt chain shown; for ddG of mutation (higher = less stable) / unfolding free energy: 25 °C
Variant,Tm [°C],"change of melting temperature, mutant - wild type (higher = more stable) [°C]",unfolding enthalpy (van 't Hoff) [kcal/mol],ddG of mutation (higher = less stable) [kcal/mol],unfolding free energy [kcal/mol]
E120G,39.5,-12.7,101,–,–
I135G,31.4,-20.8,100,7.4,2.1
Q62G,50.2,-2,123,1.6,7.9
Q62A,51.4,-0.9,137,0.2,9.3
Y144G,34.4,-17.9,103,6.6,2.9
D59A,51.2,-1,153,-1.1,10.6
D59G,50,-2.3,129,1.2,8.3
Y60G,36.6,-15.6,92.7,6.4,3.1
L136G,43.5,-8.7,58.5,7,2.5
I143G,36.5,-15.7,110,–,–
L142G,43.1,-9.1,98.5,4.7,4.8
R119G,46.5,-5.7,123,2.5,7
T147G,–,–,–,2.8,6.7
Y64G,42,-10.3,117,–,–
I102G,–,–,–,3.1,6.4

# — FireProtDB (doi:10.1021/bi0362267)
